What was measured:
[1] = tested on: myelin in the lateral corpus callosum; assay: Remyelination in EAE mouse brain, Luxol fast blue staining; assay type: in vivo, SJL/elite mice; settings: EAE mice; BDNF 5.71 nmol/kg ± ADTC5 10 μmol/kg; n=5; compared to BDNF alone or vehicle
From the text: Euthanasia, Brain Perfusion, and Extraction: All mice were euthanized via a CO2 chamber. Immediately following euthanasia, mice underwent cervical dislocation and were transcardially perfused with PBS+0.2% Tween-20 followed by perfusion-fixation with a 4% paraformaldehyde and 30% sucrose PBS solution. Following the fixation, the brains were extracted and post-fixed overnight in the perfusion-fixation solution.
Fixed brain samples were submitted to IHC World (Ellicott City, Md.) for paraffin embedding, tissue sectioning (5 μm), anti-NG2 (Abcam, Cambridge, UK) staining via DAB, and Luxol-fast blue staining. Staining protocols described on the IHC World website for Luxol-fast blue and immunohistochemistry enzyme HRP were performed. […]
Luxol-fast blue and anti-NG2 mAb images were taken under identical conditions on a Zeiss Axioplan 2 microscope (Oberkochen, Germany) equipped with a mercury lamp excitation source, and 40× (Luxol) and 20× (anti-NG2) air objective lenses. Greyscale images for quantification were taken using a 1344×1024 Orca ER CCD camera (Hamamatsu Photonics, Japan), color images for qualitative purposes were taken using a 1.3 MP Spot Color camera (Spot Imaging, Sterling Heights, Mich.). […] The mean value of each ROI from each image was recorded. […] The integrated mean grey value for each ROI from each image was recorded. […]

[2] = tested on: APP/PS1 mice; assay: Novel object recognition (NOR) assessment; assay type: in vivo, transgenic APP/PS1 mice; settings: all groups compared
Description: Animals: All animal studies were carried out under the approved animal protocol (AUS-74-11) granted by Institutional Animal Care and Use Committee (IACUC) at The University of Kansas. Animal Care Unit (ACU) personnel and veterinarians were involved in the care of the animals used in this study. Female transgenic APP/PS1 (MMRRC stock #34832-Jax) were obtained from Jackson Laboratory (Bar Harbor, Me.) and housed until at least 6 months of age. Mice received intravenous (i.v.) injections of either BDNF (5.7 nmol/kg)+ADTC5 (10 μmol/kg; n=7), BDNF alone (5.7 nmol/kg; n=6), or vehicle (n=6) every 4 days, for a total of 8 injections. At the end of the study, the mice were euthanized via CO2 inhalation and perfused with PBS immediately followed by 4% formalin fixative solution. The brains were extracted and post-fixed overnight in the perfusion-fixation solution then transferred to 70% ethanol PBS solution for paraffin embedding.
Novel object recognition assessment: Twenty-four hours following the Y-maze assessment, the mice were subjected to Novel Object Recognition (NOR) assessment. […] The mice were allowed to explore the objects for 10 min and the total amount of time each mouse spent interacting with each object was measured. […]

B1: BDNF: recombinant brain-derived neurotrophic factor (13 kDa monomer), Peprotech (protein, UniProt P23560 19-247, looked up)
Neurotrophic factor BDNF …: APMKEANIRGQGGLAYPGVRTHGTLESVNGPKAGSRGLTSLADTFEHVIEELLDEDQKVRPNEENNKDADLYTSRVMLSSQVPLEPPLLFLLEEYKNYLDAANMSMRVRRHSDPARRGELSVCDSISEWVTAADKKTAVDMSGGTVTVLEKVPVSKGQLKQYFYETKCNPMGYTKEGCRGIDKRHWNSQCRTTQSYVRALTMDSKKRIGWRFIRIDTSCVCTLTIKRGR
- myelin density in the lateral corpus callosum [1]: myelin discontinuity
- total time spent with either of the two objects [2]: no significant difference

— patent publication US20220227815A1, “COMPOSITIONS AND METHODS USEFUL IN TREATING BRAIN DISEASES” (University of Kansas, priority 2019, published 2022)
